Laboratory results: patent US20230078601A1 (CLEVELAND CLINIC FOUNDATION, published 2023)

Tests used:
Assay in all cases: direct ELISA on plated overlapping 16-mer peptides of AMHR2-ED, 4D12G1 as primary antibody
[1] = molecular target: T1, 11-26
T1 construct: overlapping 16-mer of human AMHR2-ED; also called p11-26; AMHR2-ED 11-26 16-mer peptide
T1 peptide: EAPGVRGSTKTLGELL
Experimental: (§1) Competitive ELISAs were used to determine the AMHR2-ED sequence recognized by the 4D12G1 mAb. A set of overlapping 16-mer peptides spanning the entire 132 amino acid sequence of human AMHR2-ED was generated. Each peptide shifted by one amino acid and all cysteine residues were replaced by serine to avoid disulfide bond formation (Thermo Fisher). Individual 16-mer peptides were plated in solid phase in microtiter wells, increasing concentrations of each 16-mer peptide were incubated with the 4D12G1 mAb in liquid phase, and ELISAs were performed as described above. The binding site of the 4D12G1 mAb was confirmed by competitive ELISA using overlapping peptides containing alanine substitutions for each amino acid spanning the immunoreactive region of AMEIR2-ED. The substituted peptides were used in liquid phase with the 4D12G1 mAb to determine binding inhibition to rhAMHR2-ED in solid phase. The AMHR2-ED binding sequence of the 4D12G1 mAb and the critical AMHR2-ED residues for such binding were confirmed by SPOT peptide arrays. Peptides spanning the AMHR2-ED 9-40 immunoreactive region and ranging from 4-16-mers in length were synthesized >90% pure on cellulose membranes (JPT Peptide Technologies, Berlin, Germany), treated overnight with blocking buffer (Thermo Fisher), followed by treatment with the 4D12G1 mAb at 1.0 μg/ml for 3 hours at room temperature, followed by three washes with PBS containing 0.01% Tween-20 (Bio-Rad). The membranes were then treated with a 1:10,000 dilution of an HRP-conjugated rabbit anti-mouse IgG (MilliporeSigma) followed by three washes with PBS containing 0.01% Tween-20 (Bio-Rad). Bound antibody was detected using the HyGLO chemiluminescence system (Thomas Scientific).
(§2) An overlapping series of 16-mer peptides spanning the entire 132 amino acid sequence of human AMHR2-ED (FIG. 3A) with moving single amino acid shifts were plated for direct ELISA testing using the 4D12G1 mAb as primary antibody. […] To determine amino acids recognized by the 4D12G1 mAb, an overlapping series of peptides spanning the immunoreactive sequence comprising AMHR2-ED 13-30 were synthesized with alanine substitutions at each N-terminal residue or with glycine substitutions for any native N-terminal alanine.

[2] = molecular target: T2, 12-27
T2 construct: overlapping 16-mer of human AMHR2-ED; also called p12-27; AMHR2-ED 12-27 16-mer peptide
T2 peptide: APGVRGSTKTLGELLD
Experimental: as §1, §2

[3] = molecular target: T3, 13-28
T3 construct: overlapping 16-mer of human AMHR2-ED; also called p13-28; AMHR2-ED 13-28 16-mer peptide
T3 peptide: PGVRGSTKTLGELLDT
Experimental: as §1, §2

[4] = molecular target: T4, 14-29
T4 construct: overlapping 16-mer of human AMHR2-ED; also called p14-29; AMHR2-ED 14-29 16-mer peptide
T4 peptide: GVRGSTKTLGELLDTG
Experimental: as §1, §2

[5] = molecular target: T5, 15-30
T5 construct: overlapping 16-mer of human AMHR2-ED; also called p15-30; AMHR2-ED 15-30 16-mer peptide
T5 peptide: VRGSTKTLGELLDTGT
Experimental: as §1, §2

[6] = molecular target: T6, 16-31
T6 construct: overlapping 16-mer of human AMHR2-ED; also called p16-31; AMHR2-ED 16-31 16-mer peptide
T6 peptide: RGSTKTLGELLDTGTE
Experimental: as §1, §2

[7] = molecular target: T7, 17-32
T7 construct: overlapping 16-mer of human AMHR2-ED; also called p17-32; AMHR2-ED 17-32 16-mer peptide
T7 peptide: GSTKTLGELLDTGTEL
Experimental: as §1, §2

Measured: binding result

B1: 4D12G1 mAb (antibody, IgG1, V domains shown)
VH: DVKLVESGGGLVKLGGSLKLSCAASGFTFSRYFMSWVRQTPEKRLELVAAINSDGGRTYYPDTVKGRFTISRDNAKNTLYLQMSSLKSEDTALYYCTRHIYSYYEDYFDYWGQGTTLTVSS
VL: DVVMTQTPLSLPVSLGDQASISCRSSQSLVHSNGNTYLHWYLQKPGQSPKLLIYKVSKRFSGVPDRFSGSGSGTDFTLKISRVEAEDLGVYFCSQSTHVYTFGGGTKLEIK
notes: also called 4D12G1 IgG1 mAb
binds: all assays above
